In US20100040577:

Test system: human recombinant CXCL10 (1-77)
Sequence (chain, as listed by the source): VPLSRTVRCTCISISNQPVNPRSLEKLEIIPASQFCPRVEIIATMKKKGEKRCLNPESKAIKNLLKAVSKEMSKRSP

Row | Substance | cleavage of CXCL10 (SELDI-TOF mass analysis) | molecular weight difference after in vitro digestion (SELDI-TOF mass spectrometry)
1 | active MMP2 | MMP2 did not alter the mass of CXCL10 | –
2 | active MMP9 | MMP9 cleaved 9 amino acids from CXCL10 | –
3 | recombinant DPP4 | – | The molecular weight difference (red number) between CXCL10 (1-77) and CXCL10 (3-77) is 0.2 KDa, corresponding to a 2 amino-acid difference
